The source of these data is PMC6381284.

The target of the test is KSHV glycoprotein H/glycoprotein L (gH/gL) (Kaposi's sarcoma-associated herpesvirus (KSHV)) (UniProt F5HAK9).
Sequence of UniProt F5HAK9 (F5HAK9 whole entry, looked up): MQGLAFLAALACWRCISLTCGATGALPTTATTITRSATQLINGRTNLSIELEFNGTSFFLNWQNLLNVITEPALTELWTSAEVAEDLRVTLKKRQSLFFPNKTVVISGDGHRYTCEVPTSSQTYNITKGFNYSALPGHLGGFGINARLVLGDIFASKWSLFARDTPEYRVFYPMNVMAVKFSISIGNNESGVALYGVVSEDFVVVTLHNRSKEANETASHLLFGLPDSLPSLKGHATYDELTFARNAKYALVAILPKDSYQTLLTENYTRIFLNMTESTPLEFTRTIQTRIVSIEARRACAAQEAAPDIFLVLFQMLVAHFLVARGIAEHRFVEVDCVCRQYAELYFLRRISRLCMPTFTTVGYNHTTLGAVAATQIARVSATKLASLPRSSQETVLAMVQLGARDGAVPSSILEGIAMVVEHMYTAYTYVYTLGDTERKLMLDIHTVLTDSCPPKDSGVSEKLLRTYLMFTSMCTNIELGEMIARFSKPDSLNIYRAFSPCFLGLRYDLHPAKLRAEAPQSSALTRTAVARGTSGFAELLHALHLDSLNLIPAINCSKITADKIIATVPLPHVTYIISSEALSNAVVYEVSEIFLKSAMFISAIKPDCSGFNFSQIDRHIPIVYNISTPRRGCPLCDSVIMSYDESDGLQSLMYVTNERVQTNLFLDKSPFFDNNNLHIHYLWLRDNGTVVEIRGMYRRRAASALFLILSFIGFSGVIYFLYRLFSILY

“Soluble EphA4-Fc (from UniProt P54764 20-547) (Fc fusion)” registered a virus-free cell-cell fusion (luciferase): CHO-K1 cells with EBV gB and KSHV gH/gL overlaid with HEK293T cells overexpressing membrane EphA4, compared with cells overexpressing EphA2 (% more fusion than with EphA2) of 33.
